# Test results reported in patent US20250084453.
# Key:
# [1] = target: T1, RBM39 (RNA-Binding Motif Protein 39)/CAPERα, endogenous in HEK293T cells (UniProt Q14498)
# T1 sequence: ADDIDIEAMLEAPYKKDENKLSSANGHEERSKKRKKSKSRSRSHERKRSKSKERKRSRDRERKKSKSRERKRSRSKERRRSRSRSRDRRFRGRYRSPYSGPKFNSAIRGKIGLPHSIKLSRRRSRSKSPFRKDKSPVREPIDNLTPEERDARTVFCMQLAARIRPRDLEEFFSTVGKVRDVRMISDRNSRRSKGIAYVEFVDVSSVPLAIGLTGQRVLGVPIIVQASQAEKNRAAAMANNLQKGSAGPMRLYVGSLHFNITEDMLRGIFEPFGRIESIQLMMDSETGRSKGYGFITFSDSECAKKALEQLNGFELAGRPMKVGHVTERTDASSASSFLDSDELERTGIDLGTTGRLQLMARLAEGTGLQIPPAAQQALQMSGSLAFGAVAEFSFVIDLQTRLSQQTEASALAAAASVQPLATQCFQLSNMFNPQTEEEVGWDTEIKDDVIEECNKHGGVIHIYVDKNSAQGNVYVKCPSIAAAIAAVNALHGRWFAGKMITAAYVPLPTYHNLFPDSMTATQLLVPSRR
# [2] = target: translation termination factor GSPT2, endogenous in HEK293T cells (UniProt Q8IYD1)
# Sequence of translation termination factor GSPT2, endogenous in HEK293T cells (Q8IYD1 whole entry): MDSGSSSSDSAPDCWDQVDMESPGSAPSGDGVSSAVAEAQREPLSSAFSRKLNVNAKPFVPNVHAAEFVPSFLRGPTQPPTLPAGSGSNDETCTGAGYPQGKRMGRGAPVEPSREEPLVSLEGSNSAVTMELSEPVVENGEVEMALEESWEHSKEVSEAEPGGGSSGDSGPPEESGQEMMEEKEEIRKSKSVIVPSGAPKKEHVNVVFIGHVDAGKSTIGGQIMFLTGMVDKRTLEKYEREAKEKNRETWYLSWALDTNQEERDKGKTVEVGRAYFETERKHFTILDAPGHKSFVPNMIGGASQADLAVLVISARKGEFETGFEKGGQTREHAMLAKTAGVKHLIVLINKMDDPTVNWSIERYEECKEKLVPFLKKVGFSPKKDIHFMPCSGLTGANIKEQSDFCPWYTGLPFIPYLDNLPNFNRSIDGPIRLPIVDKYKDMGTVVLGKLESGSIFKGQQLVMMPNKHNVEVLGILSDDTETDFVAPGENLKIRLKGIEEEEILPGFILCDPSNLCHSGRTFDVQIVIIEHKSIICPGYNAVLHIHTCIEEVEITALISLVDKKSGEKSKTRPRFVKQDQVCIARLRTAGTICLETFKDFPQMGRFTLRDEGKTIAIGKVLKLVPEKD
# [3] = target: translation termination factor GSPT1, endogenous in HEK293T cells (UniProt P15170)
# Sequence of translation termination factor GSPT1, endogenous in HEK293T cells (P15170 whole entry): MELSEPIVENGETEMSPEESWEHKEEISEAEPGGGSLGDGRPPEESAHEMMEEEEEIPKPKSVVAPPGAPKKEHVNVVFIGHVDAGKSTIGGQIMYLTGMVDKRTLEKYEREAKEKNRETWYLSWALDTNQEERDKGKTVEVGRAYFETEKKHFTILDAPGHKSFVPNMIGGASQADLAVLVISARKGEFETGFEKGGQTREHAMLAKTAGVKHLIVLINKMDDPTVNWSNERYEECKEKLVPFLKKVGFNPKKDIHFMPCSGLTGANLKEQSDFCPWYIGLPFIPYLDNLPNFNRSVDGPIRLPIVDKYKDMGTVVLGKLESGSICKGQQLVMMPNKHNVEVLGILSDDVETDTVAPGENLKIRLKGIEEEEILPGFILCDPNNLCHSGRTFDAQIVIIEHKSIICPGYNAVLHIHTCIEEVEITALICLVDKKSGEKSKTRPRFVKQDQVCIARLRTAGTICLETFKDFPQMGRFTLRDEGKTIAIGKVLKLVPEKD
# [4] = target: VCL (vinculin), endogenous in HEK293T cells (UniProt P18206)
# Sequence of VCL (vinculin), endogenous in HEK293T cells (P18206 other isoform, or with tags, fused parts or gaps): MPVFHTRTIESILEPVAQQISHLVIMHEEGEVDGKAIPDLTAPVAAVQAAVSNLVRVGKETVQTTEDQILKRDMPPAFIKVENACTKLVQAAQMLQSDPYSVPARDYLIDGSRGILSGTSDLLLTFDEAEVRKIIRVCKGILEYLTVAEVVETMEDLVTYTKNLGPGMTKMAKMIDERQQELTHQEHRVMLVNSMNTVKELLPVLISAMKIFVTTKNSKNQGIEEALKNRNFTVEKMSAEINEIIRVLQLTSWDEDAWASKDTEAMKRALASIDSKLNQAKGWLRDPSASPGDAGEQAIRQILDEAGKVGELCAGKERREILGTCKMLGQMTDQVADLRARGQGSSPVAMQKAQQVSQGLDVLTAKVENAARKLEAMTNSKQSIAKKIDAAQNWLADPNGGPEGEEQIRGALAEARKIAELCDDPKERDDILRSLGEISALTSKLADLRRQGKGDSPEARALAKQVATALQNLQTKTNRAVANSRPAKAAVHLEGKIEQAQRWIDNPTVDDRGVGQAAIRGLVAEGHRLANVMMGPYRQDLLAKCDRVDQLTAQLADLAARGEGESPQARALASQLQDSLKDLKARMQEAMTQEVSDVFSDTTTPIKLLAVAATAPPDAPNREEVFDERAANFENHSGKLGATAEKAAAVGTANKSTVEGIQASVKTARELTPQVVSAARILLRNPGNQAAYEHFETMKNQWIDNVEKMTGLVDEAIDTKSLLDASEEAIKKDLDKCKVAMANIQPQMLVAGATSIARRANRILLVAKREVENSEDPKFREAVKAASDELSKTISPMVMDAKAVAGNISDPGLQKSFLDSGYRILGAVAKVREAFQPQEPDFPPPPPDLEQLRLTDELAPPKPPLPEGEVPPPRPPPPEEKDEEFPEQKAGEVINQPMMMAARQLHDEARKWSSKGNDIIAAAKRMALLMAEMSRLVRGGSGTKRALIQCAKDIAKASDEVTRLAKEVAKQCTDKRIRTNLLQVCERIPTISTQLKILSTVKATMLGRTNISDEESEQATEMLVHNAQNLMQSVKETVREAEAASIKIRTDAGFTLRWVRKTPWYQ
# [5] = target: HIF1A, endogenous in HEK293T or A375 cells (UniProt Q16665)
# Sequence of HIF1A, endogenous in HEK293T or A375 cells (Q16665 whole entry, looked up): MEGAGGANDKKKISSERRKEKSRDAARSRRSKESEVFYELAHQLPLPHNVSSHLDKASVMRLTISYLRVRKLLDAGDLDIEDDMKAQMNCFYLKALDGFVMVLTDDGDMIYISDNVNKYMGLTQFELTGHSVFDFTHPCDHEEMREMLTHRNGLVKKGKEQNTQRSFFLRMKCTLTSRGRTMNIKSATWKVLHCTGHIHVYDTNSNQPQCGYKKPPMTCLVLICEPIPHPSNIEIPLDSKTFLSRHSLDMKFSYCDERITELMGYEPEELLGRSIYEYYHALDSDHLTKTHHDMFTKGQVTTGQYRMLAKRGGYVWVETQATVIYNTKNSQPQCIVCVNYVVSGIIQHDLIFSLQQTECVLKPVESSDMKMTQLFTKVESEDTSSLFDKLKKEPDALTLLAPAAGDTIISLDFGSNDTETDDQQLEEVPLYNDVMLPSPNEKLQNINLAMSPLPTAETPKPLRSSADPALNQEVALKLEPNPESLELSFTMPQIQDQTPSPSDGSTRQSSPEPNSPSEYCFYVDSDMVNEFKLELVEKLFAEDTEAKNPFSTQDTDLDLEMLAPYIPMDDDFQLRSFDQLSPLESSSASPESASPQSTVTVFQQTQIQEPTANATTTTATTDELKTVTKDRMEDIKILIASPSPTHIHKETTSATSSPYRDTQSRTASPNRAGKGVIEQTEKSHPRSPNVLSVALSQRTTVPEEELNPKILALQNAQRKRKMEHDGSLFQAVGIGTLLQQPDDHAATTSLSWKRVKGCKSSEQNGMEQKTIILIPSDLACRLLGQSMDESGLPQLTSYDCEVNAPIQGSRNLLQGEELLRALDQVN
# [6] = target: BRD3, endogenous in HEK293T cells (UniProt Q15059)
# Sequence of BRD3, endogenous in HEK293T cells (Q15059 2-726): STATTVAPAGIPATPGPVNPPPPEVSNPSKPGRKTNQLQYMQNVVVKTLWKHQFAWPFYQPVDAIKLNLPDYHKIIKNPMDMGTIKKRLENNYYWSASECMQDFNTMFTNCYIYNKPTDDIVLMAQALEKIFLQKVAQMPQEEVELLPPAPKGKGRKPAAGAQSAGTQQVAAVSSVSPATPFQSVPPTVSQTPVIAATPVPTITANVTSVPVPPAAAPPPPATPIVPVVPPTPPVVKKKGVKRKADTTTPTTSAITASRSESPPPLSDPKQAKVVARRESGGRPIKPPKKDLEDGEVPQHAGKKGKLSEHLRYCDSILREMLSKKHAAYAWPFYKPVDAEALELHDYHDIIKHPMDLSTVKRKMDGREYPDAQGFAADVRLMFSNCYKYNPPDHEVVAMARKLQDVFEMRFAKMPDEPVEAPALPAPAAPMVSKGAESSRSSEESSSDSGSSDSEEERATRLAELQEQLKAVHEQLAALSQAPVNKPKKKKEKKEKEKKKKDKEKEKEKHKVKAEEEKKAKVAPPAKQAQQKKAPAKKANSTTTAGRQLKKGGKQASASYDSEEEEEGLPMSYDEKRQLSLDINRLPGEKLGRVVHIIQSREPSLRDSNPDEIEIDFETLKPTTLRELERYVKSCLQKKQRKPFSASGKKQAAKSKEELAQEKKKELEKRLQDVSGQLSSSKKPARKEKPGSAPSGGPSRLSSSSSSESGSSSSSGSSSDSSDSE
# [7] = target: BRD2, endogenous in HEK293T cells (UniProt P25440)
# Sequence of BRD2, endogenous in HEK293T cells (P25440 whole entry, looked up): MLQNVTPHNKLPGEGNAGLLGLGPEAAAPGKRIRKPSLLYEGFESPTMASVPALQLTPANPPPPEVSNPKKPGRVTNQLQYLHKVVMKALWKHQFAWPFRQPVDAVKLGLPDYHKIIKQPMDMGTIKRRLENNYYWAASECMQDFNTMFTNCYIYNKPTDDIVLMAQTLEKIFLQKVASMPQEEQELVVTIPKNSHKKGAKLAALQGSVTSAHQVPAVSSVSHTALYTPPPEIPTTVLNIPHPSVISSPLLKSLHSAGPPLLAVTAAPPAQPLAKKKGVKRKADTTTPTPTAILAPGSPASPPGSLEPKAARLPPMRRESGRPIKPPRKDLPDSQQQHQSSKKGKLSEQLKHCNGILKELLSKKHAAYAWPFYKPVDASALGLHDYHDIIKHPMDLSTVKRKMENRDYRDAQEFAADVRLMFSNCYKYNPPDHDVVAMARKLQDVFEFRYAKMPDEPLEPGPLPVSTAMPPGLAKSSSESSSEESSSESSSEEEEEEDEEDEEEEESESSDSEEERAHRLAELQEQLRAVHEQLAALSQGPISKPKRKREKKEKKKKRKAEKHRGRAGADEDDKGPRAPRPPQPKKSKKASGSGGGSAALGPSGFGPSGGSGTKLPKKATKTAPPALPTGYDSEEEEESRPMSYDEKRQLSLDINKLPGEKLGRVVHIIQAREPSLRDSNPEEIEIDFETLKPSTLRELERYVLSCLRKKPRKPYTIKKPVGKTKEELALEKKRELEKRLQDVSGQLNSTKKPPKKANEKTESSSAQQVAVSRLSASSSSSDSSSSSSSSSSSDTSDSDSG
# [8] = target: BRD4, endogenous in HEK293T cells (UniProt O60885)
# [9] = target: GLUL (glutamine synthetase), endogenous in HEK293T cells (UniProt P15104)
# V5-tagged IKZF1 protein = V5-tagged IKZF1 protein (UniProt Q13422)
# Sequence of V5-tagged IKZF1 protein (Q13422 whole entry, looked up): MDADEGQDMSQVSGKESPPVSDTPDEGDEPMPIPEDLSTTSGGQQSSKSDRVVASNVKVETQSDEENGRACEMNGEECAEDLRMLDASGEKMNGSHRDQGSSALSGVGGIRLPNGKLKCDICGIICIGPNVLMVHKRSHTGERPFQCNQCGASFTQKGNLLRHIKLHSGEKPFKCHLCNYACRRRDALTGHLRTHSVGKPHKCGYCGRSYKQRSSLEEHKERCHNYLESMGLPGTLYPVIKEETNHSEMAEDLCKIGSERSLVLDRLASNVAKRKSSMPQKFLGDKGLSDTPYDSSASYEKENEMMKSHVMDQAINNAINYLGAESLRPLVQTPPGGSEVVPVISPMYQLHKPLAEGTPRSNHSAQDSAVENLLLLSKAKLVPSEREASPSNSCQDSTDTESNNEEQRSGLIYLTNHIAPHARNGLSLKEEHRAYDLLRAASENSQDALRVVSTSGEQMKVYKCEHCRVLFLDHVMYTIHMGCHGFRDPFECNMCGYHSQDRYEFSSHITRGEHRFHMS
substance,measurement,setting,value
DCAF15 fused to BirA biotin ligase (DCAF15-BirA),"differential enrichment in streptavidin pulldown (MS, triplicates, A3-HA-Ub), E7820 (10 µM) against DMSO",[1],the induced ubiquitinated substrate RBM39/CAPERα was produced as a result of the use of the E7820 molecular glue in conjunction with DCAF15-BirA and associated CRL4 E3 ligase
CRBN-BirA mutant W386A,"biotinylation in streptavidin pulldown (MS, A3-HA-Ub, CC-885 1 µM), W386A mutant against WT CRBN-BirA",[2],a decrease in biotinylation by the loss-of-function CRBN-BirA mutants
same,"biotinylation in streptavidin pulldown (MS, A3-HA-Ub, CC-885 1 µM), W386A mutant against WT CRBN-BirA",[3],a decrease in biotinylation by the loss-of-function CRBN-BirA mutants
same,"biotinylation in streptavidin pulldown (MS, A3-HA-Ub, CC-885 1 µM), W386A mutant against WT CRBN-BirA",[4],a decrease in biotinylation by the loss-of-function CRBN-BirA mutants
CRBN-BirA mutant D249Y,"biotinylation in streptavidin pulldown (MS, A3-HA-Ub, CC-885 1 µM), D249Y mutant against WT CRBN-BirA",[2],a decrease in biotinylation by the loss-of-function CRBN-BirA mutants
same,"biotinylation in streptavidin pulldown (MS, A3-HA-Ub, CC-885 1 µM), D249Y mutant against WT CRBN-BirA",[3],a decrease in biotinylation by the loss-of-function CRBN-BirA mutants
same,"biotinylation in streptavidin pulldown (MS, A3-HA-Ub, CC-885 1 µM), D249Y mutant against WT CRBN-BirA",[4],a decrease in biotinylation by the loss-of-function CRBN-BirA mutants
VHL E3 ligase fused to E. coli wild-type BirA biotin ligase (VHL-BirA),"proteins differentially biotinylated by VHL-BirA against CRBN-BirA (MS, triplicates, A3-tagged ubiquitin, HEK293T)",[5],"One of the best known VHL substrates, HIF1A was among the hits of differentially biotinylated proteins by VHL-BirA"
same,"differential enrichment in streptavidin pulldown (MS, triplicates, A3-HA-Ub), PROTAC ARV-771 (1 µM) against DMSO",[6],"VHL-BirA; ubiquitinated substrates BRD2, BRD3, BRD4 observed in the upper right portion of the top right volcano plot"
same,"differential enrichment in streptavidin pulldown (MS, triplicates, A3-HA-Ub), PROTAC ARV-771 (1 µM) against DMSO",[7],"VHL-BirA; ubiquitinated substrates BRD2, BRD3, BRD4 observed in the upper right portion of the top right volcano plot"
same,"differential enrichment in streptavidin pulldown (MS, triplicates, A3-HA-Ub), PROTAC ARV-771 (1 µM) against DMSO",[8],"VHL-BirA; ubiquitinated substrates BRD2, BRD3, BRD4 observed in the upper right portion of the top right volcano plot"
CRBN E3 ligase fused at its carboxy terminus to E. coli wild-type BirA biotin ligase (CRBN-BirA),"# of PSMs in streptavidin pulldown (MS), A3-Ub, CC-885",[2],20 PSMs
same,"# of PSMs in streptavidin pulldown (MS), A3-Ub, DMSO",[2],0 PSMs
same,"# of PSMs in streptavidin pulldown (MS), Avi-Ub, CC-885",[2],13 PSMs
same,"# of PSMs in streptavidin pulldown (MS), Avi-Ub, DMSO",[2],0 PSMs
same,"biotinylation in streptavidin pulldown (MS, A3-HA-Ub, CC-885 1 µM), WT CRBN-BirA against loss-of-function mutants",[2],"substrates GSPT1, GSPT2, VCL and CSNK1A1 were identified"
same,"differential enrichment in streptavidin pulldown (MS, triplicates, A3-Ub), CC-885 against DMSO",[2],"GSPT1 and GSPT2 are observed to be the most upregulated proteins, both by amount and by statistical significance"
same,"proteins differentially biotinylated, VHL-BirA against CRBN-BirA (MS, triplicates, A3-tagged ubiquitin, HEK293T)",[9],"Other identified proteins included GLUL, which is a reported a CRBN substrate"
same,"# of PSMs in streptavidin pulldown (MS), A3-Ub, CC-885",[3],30 PSMs
same,"# of PSMs in streptavidin pulldown (MS), A3-Ub, DMSO",[3],0 PSMs
same,"# of PSMs in streptavidin pulldown (MS), Avi-Ub, CC-885",[3],25 PSMs
same,"# of PSMs in streptavidin pulldown (MS), Avi-Ub, DMSO",[3],0 PSMs
same,"biotinylated, ubiquitinated endogenous GSPT1 in streptavidin pulldown (Western blot, Avi-HA-Ub), with CC-885 (1 µM)",[3],mono- and poly-ubiquitinated GSPT1 captured by the streptavidin beads were only observed in conditions where CC-885 was present
same,"biotinylation in streptavidin pulldown (MS, A3-HA-Ub, CC-885 1 µM), WT CRBN-BirA against loss-of-function mutants",[3],"substrates GSPT1, GSPT2, VCL and CSNK1A1 were identified"
same,"differential enrichment in streptavidin pulldown (MS, triplicates, A3-Ub), CC-885 against DMSO",[3],"GSPT1 and GSPT2 are observed to be the most upregulated proteins, both by amount and by statistical significance"
same,"sensitivity in detecting CC-885-induced ubiquitination of GSPT1 by CRBN (Western blot quantification), A3-tag",[3],"when comparing A3-tag to Avi-tag (36.39 to 15.46, respectively)"
same,"sensitivity in detecting CC-885-induced ubiquitination of GSPT1 by CRBN (Western blot quantification), Avi-tag",[3],"when comparing A3-tag to Avi-tag (36.39 to 15.46, respectively)"
same,"ubiquitinated GSPT1 captured by streptavidin beads (Western blot quantification, Avi-HA-Ub), CC-885 against DMSO",[3],6-12 fold more ubiquitinated GSPT1 was captured by the streptavidin beads
same,"differential enrichment in streptavidin pulldown (MS, triplicates, A3-HA-Ub), PROTAC dBET6 (1 µM) against DMSO",[6],"CRBN-BirA; ubiquitinated substrates BRD2, BRD3, BRD4 observed in the upper right portion of the top left volcano plot"
same,"differential enrichment in streptavidin pulldown (MS, triplicates, A3-HA-Ub), PROTAC dBET6 (1 µM) against DMSO",[7],"CRBN-BirA; ubiquitinated substrates BRD2, BRD3, BRD4 observed in the upper right portion of the top left volcano plot"
same,"biotinylation in streptavidin pulldown (MS, A3-HA-Ub, CC-885 1 µM), WT CRBN-BirA against loss-of-function mutants",[4],"substrates GSPT1, GSPT2, VCL and CSNK1A1 were identified"
same,"differential enrichment in streptavidin pulldown (MS, triplicates, A3-HA-Ub), PROTAC dBET6 (1 µM) against DMSO",[8],"CRBN-BirA; ubiquitinated substrates BRD2, BRD3, BRD4 observed in the upper right portion of the top left volcano plot"
same,"biotinylated, ubiquitinated V5-IKZF1 in streptavidin bead eluates (Western blot), Avi-Ub or A3-Ub, with pomalidomide (1 µM)",V5-tagged IKZF1 protein,both substrate peptide-tagged ubiquitin variants showed pomalidomide-induced ubiquitination of IKZF1 by E3 ligase CRBN
same,"biotinylated, ubiquitinated V5-IKZF1 in streptavidin pulldown (Western blot, Avi-HA-Ub), with pomalidomide (1 µM)",V5-tagged IKZF1 protein,"in conditions where pomalidomide was present, an increased amount of mono- and poly-ubiquitinated V5-IKZF1 was captured by the streptavidin beads"
same,"sensitivity in detecting pomalidomide-induced ubiquitination of V5-IKZF1 (Western blot quantification), A3-tagged ubiquitin",V5-tagged IKZF1 protein,17.76 to 5.58 when comparing A3 to Avi
same,"sensitivity in detecting pomalidomide-induced ubiquitination of V5-IKZF1 (Western blot quantification), Avi-tagged ubiquitin",V5-tagged IKZF1 protein,17.76 to 5.58 when comparing A3 to Avi
same,"ubiquitinated V5-IKZF1 captured by streptavidin beads (Western blot quantification, Avi-HA-Ub), pomalidomide against DMSO",V5-tagged IKZF1 protein,approximately 3.9-fold more ubiquitinated V5-IKZF1 substrate was captured by the streptavidin beads
